Experiments:
[1] = TEM and particle size of probe in aqueous solution; format: physicochemical; settings: TEM
[2] = UV visible near-infrared and fluorescence spectra in aqueous solution; format: physicochemical; settings: 10 μM in ultrapure water
[3] = 10 μM
[4] = system: 4T1 mice breast cancer tumor
Experimental: The control group probe CR and the experimental group probe f-CR were treated with PBS to a concentration of […] 200 μL. MB (PBS, 0.1) was injected into the mouse tumor 0.5 hours in advance by intratumor injection, followed by tail vein injection of CR or f-CR.

4T1 cells = experiment: Cytotoxicity of probes co-incubated with MB and cells

| Structure (SMILES) | assembly or nanostructure [1] | maximum absorption [2] | maximum emission [2] | solubility in ultrapure water [3] | enrichment in the tumor ([4]; 12 hours after probe injection, f-CR+MB+660 nm, tumor sections and organ homogenates) | retention time in vivo (tumor, IVIS) ([4]; MB intratumor 0.5 hours in advance, probe 100 Mm 200 μL tail vein, 660 nm 50 mW/cm^2 3 minutes after 1 hour) | toxicity without illumination (4T1 cells; 100, 50, 20, 10, 1, 0.1 μM + MB 0.1 μM, 4T1 cells, 12 hours) | cytotoxicity after illumination (4T1 cells; probe + MB 0.1 μM, 4T1 cells 12 hours, 660 nm 50 mW/cm 2 3 minutes, further cultured 48 hours) |
| --- | --- | --- | --- | --- | --- | --- | --- | --- |
| CC[N+]1=C(/C=C/C=C/C=C/C=C2\N(CCCCCC(=O)NCCCCC3NC(=O)C(Cc4ccccc4)NC(=O)C(CC(=O)O)NC(=O)CNC(=O)C(CCCNC(=N)N)NC3=O)c3ccc(S(=O)(=O)O)cc3C2(C)C)C(C)(C)c2cc(S(=O)(=O)O)ccc21 (stereo not drawn) [CR] | no assembly or nanostructure was found | 747 nm | 789 nm | completely soluble |  |  |  |  |
| CC[N+]1=C(/C=C/C=C/C=C/C=C2\N(CCCCCC(=O)NC(CCCCNC(=O)CCc3ccco3)C(=O)NCCCCC3NC(=O)C(Cc4ccccc4)NC(=O)C(CC(=O)O)NC(=O)CNC(=O)C(CCCNC(=N)N)NC3=O)c3ccc(S(=O)(=O)O)cc3C2(C)C)C(C)(C)c2cc(S(=O)(=O)O)ccc21 (stereo not drawn) [f-CR] |  |  |  | completely soluble | much higher than that of other groups | much longer than that of other groups | neither CR nor f-CR showed significant toxicity | exhibited certain cytotoxicity |

Reference: US12480043B2, “Red-light-mediated nucleic acid anchoring-type fluorescent probe, and preparation method therefor and use thereof” (SOOCHOW UNIVERSITY, priority 2020, dated 2025)
